Measured values published in US20220096653A1, “CONJUGATE COMPRISING LIGAND AND CEACAM5 ANTIBODY FAB FRAGMENT” (ASTELLAS PHARMA INC., priority 2019, published 2022).

T1: CEACAM5 (R&D Systems, 4128-CM-050) (human, UniProt P06731 35-685)
T1 construct: Immobilised on the ELISA plate; also called human CEACAM5
T1 sequence (looked up): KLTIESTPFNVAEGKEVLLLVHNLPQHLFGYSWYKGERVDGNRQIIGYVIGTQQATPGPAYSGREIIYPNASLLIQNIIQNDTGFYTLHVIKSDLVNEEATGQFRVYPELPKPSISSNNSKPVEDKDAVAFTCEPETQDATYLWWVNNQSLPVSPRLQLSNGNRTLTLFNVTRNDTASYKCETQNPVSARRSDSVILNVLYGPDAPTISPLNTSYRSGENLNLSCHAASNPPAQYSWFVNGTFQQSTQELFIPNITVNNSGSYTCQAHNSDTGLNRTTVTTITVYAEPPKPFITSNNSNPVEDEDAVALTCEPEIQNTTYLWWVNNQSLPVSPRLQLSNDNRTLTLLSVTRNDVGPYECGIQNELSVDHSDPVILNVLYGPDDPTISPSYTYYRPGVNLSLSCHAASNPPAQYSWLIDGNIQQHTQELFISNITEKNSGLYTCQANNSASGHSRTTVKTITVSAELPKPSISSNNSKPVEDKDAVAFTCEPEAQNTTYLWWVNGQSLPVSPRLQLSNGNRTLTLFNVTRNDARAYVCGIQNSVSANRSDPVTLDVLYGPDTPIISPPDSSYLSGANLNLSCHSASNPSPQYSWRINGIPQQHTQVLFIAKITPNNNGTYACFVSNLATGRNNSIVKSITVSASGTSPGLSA


The binders below were run against T1, CEACAM5 (R&D Systems, 4128-CM-050) (assay: ELISA on immobilised CEACAM5, 4-parameter fit, duplicate).
Procedure: Each anti-human CEACAM5 antibody Fab fragment conjugate prepared in Example 2 was subjected to ELISA to evaluate the binding activity thereof to CEACAM5. In the present test, a phosphate buffer (Nacalai Tesque Inc., 0.1 mol/L-Phosphate Buffer Solution (pH 7.2)) prepared to 10 mM by diluting 10-fold with distilled water was used as a solvent for an antigen immobilization liquid, and 20×PBS/Tween 20 Buffer (Thermo Fisher Scientific Inc., 28352) diluted 20-fold with distilled water was used as a wash liquid. In addition, for bovine serum albumin (BSA) used in the present test, 30% Bovine Serum Albumin solution (Sigma-Aldrich, Inc., A9576-50ML) was added in an appropriate proportion for use. CEACAM5 (R&D Systems, 4128-CM-050) was diluted with a 10 mM phosphate buffer (pH 7.2) to 0.1 μg/mL, and added to a Nunc MaxiSorp White 384 plate (Nunc, 4603272) at 30 μL per well, and the plate was incubated overnight at 4° C. for immobilization. The CEACAM5 immobilization liquid was removed by reverse centrifugation, and then blocking was carried out by adding a PBS/Tween 20 buffer containing 5.0% BSA. Thereafter, the blocking solution was removed by reverse centrifugation, a solution of each CEACAM5 antibody Fab² fragment conjugate described above or a Fab² fragment having no labeling portion (PB009-01) as a control at about 10000 ng/mL was diluted in 14 steps by 3-fold dilution using a PBS/Tween 20 buffer containing 1.0% BSA, and 30 μL was added per well and incubated at room temperature for 60 minutes. The plate was washed 3 times with a PBS/Tween 20 buffer, and Horseradish Peroxidase (HRP)-labeled goat anti-human IgG (H+L chain) antibody (MBL Life Sciences, 206) diluted 1000-fold using a PBS/Tween 20 buffer containing 5.0% BSA was added at 30 μL per well and incubated at room temperature for 30 minutes. The plate was washed 3 times with a PBS/Tween 20 buffer, and ECL Prime Western Blotting DETECTION Reagent (GE Healthcare, RPN2232) as a substrate was added at 30 μL per well. The substrate was incubated at room temperature for 15 minutes, and then a signal value thereof was measured using an Envision counter (PerkinElmer, Inc.).
The test for each antibody was carried out in duplicate, and an EC₅₀ value was calculated using a 4-parameter logistic curve model.

EC50 [nM]	Binder
0.14	(Y-S1-X)p-Fab^2 with Y Gd/DOTA, S1 -NH-CH2-(1,3-Ph)-C(═O)-, X -Gly-Lys*-Z2(#S)- (Fab, V domains shown, labeling may sit on this chain; sites not stated; labeling portion (MW 1059) on amino groups of the Fab, sites and chain not stated; 1-2 per Fab by MS, also called Ex-No 6; conjugate 6) VH: EVQLVESGGGLVQPGGSLRLSCAASGFNIRDTYMHWVRQAPGKGLEWVARIDPANGNSRYVPKFQGRFTISADTSRNTAYLQMNSLRAEDTAVYYCAPFGYYVSDYAMAYWGQGTLVTVSS VL: DIQLTQSPSSLSASVGDRVTITCRAGESVDIFGVGFLHWYQQKPGKAPKLLIYRASNLESGIPSRFSGSGSRTDFTLTISSLQPEDFATYYCQQTNEDPYTFGQGTKVEIKR
0.14	[Gd/DOTA-NH-CH2-(1,3-Ph)-C(═O)-Met-Gly-Lys*-Z2(#N)]p-Fab^2 (Fab, V domains shown, labeling may sit on this chain; sites not stated; labeling portion (MW 1089) on amino groups of the Fab, sites and chain not stated; 1-3 per Fab by MS, also called Ex-No 13; Conjugate No. 13) VH: EVQLVESGGGLVQPGGSLRLSCAASGFNIRDTYMHWVRQAPGKGLEWVARIDPANGNSRYVPKFQGRFTISADTSRNTAYLQMNSLRAEDTAVYYCAPFGYYVSDYAMAYWGQGTLVTVSS VL: DIQLTQSPSSLSASVGDRVTITCRAGESVDIFGVGFLHWYQQKPGKAPKLLIYRASNLESGIPSRFSGSGSRTDFTLTISSLQPEDFATYYCQQTNEDPYTFGQGTKVEIKR
0.27	(Y-S1-X)p-Fab^2 with Y Gd/DOTA, S1 - (bond), X -Gly-Tyr*-CH2(═O)-NH-(CH2)2-Z1(#N)- (Fab, V domains shown, labeling may sit on this chain; sites not stated; labeling portion (MW 960) on amino groups of the Fab, sites and chain not stated; 1-4 per Fab by MS, also called Ex-No 21; conjugate 21) VH: EVQLVESGGGLVQPGGSLRLSCAASGFNIRDTYMHWVRQAPGKGLEWVARIDPANGNSRYVPKFQGRFTISADTSRNTAYLQMNSLRAEDTAVYYCAPFGYYVSDYAMAYWGQGTLVTVSS VL: DIQLTQSPSSLSASVGDRVTITCRAGESVDIFGVGFLHWYQQKPGKAPKLLIYRASNLESGIPSRFSGSGSRTDFTLTISSLQPEDFATYYCQQTNEDPYTFGQGTKVEIKR
0.26	(Y-S1-X)p-Fab^2 with Y Gd/DOTA, S1 - (bond), X -Gly-Tyr-Lys*-Z2(#N)- (Fab, V domains shown, labeling may sit on this chain; sites not stated; labeling portion (MW 988) on amino groups of the Fab, sites and chain not stated; 1-4 per Fab by MS, also called Ex-No 19; conjugate 19) VH: EVQLVESGGGLVQPGGSLRLSCAASGFNIRDTYMHWVRQAPGKGLEWVARIDPANGNSRYVPKFQGRFTISADTSRNTAYLQMNSLRAEDTAVYYCAPFGYYVSDYAMAYWGQGTLVTVSS VL: DIQLTQSPSSLSASVGDRVTITCRAGESVDIFGVGFLHWYQQKPGKAPKLLIYRASNLESGIPSRFSGSGSRTDFTLTISSLQPEDFATYYCQQTNEDPYTFGQGTKVEIKR
0.32	(Y-S1-X)p-Fab^2 with Y Gd/DOTA, S1 -NH-(CH2)2-C(═O)-, X -Gly-Lys*-Z2(#N)- (Fab, V domains shown, labeling may sit on this chain; sites not stated; labeling portion (MW 896) on amino groups of the Fab, sites and chain not stated; 1-3 per Fab by MS, also called Ex-No 22; conjugate 22) VH: EVQLVESGGGLVQPGGSLRLSCAASGFNIRDTYMHWVRQAPGKGLEWVARIDPANGNSRYVPKFQGRFTISADTSRNTAYLQMNSLRAEDTAVYYCAPFGYYVSDYAMAYWGQGTLVTVSS VL: DIQLTQSPSSLSASVGDRVTITCRAGESVDIFGVGFLHWYQQKPGKAPKLLIYRASNLESGIPSRFSGSGSRTDFTLTISSLQPEDFATYYCQQTNEDPYTFGQGTKVEIKR
0.11	[Gd/4arm-DOTA-CH2-(1,4-Ph)-NH-C(═S)-Gly-Phe-Lys*-Z2(#N)]p-Fab^2 (Fab, V domains shown, labeling may sit on this chain; sites not stated; labeling portion (MW 1136) on amino groups of the Fab, sites and chain not stated; 1-3 per Fab by MS, also called Ex-No 12; Conjugate No. 12) VH: EVQLVESGGGLVQPGGSLRLSCAASGFNIRDTYMHWVRQAPGKGLEWVARIDPANGNSRYVPKFQGRFTISADTSRNTAYLQMNSLRAEDTAVYYCAPFGYYVSDYAMAYWGQGTLVTVSS VL: DIQLTQSPSSLSASVGDRVTITCRAGESVDIFGVGFLHWYQQKPGKAPKLLIYRASNLESGIPSRFSGSGSRTDFTLTISSLQPEDFATYYCQQTNEDPYTFGQGTKVEIKR
0.23	(Y-S1-X)p-Fab^2 with Y Gd/DOTA, S1 - (bond), X -Gly-Tyr*-CH2-C(═O)-NH-(CH2O)3-CH2-C(═O)-NH-(CH2)2-Z1(#N)- (Fab, V domains shown, labeling may sit on this chain; sites not stated; labeling portion (MW 1149) on amino groups of the Fab, sites and chain not stated; 1-2 per Fab by MS, also called Ex-No 17; conjugate 17) VH: EVQLVESGGGLVQPGGSLRLSCAASGFNIRDTYMHWVRQAPGKGLEWVARIDPANGNSRYVPKFQGRFTISADTSRNTAYLQMNSLRAEDTAVYYCAPFGYYVSDYAMAYWGQGTLVTVSS VL: DIQLTQSPSSLSASVGDRVTITCRAGESVDIFGVGFLHWYQQKPGKAPKLLIYRASNLESGIPSRFSGSGSRTDFTLTISSLQPEDFATYYCQQTNEDPYTFGQGTKVEIKR
0.11	(Y-S1-X)p-Fab^2 with Y Gd/DOTA, S1 - (bond), X -Met-Ile-Lys*-Z2(#N)- (Fab, V domains shown, labeling may sit on this chain; sites not stated; labeling portion (MW 1012) on amino groups of the Fab, sites and chain not stated; 1-2 per Fab by MS, also called Ex-No 10; conjugate 10) VH: EVQLVESGGGLVQPGGSLRLSCAASGFNIRDTYMHWVRQAPGKGLEWVARIDPANGNSRYVPKFQGRFTISADTSRNTAYLQMNSLRAEDTAVYYCAPFGYYVSDYAMAYWGQGTLVTVSS VL: DIQLTQSPSSLSASVGDRVTITCRAGESVDIFGVGFLHWYQQKPGKAPKLLIYRASNLESGIPSRFSGSGSRTDFTLTISSLQPEDFATYYCQQTNEDPYTFGQGTKVEIKR
